{"source": "patent US20200131227A1", "about": "“POLYPEPTIDE WITH TUMOUR BINDING ACTIVITY” (RUPRECHT-KARLS-UNIVERSITÄT HEIDELBERG, priority 2017, published 2020)", "key": {"ITGαvβ3": {"target": "ITGαvβ3 (Homo sapiens, UniProt P05106+P06756)", "sequence (P06756 31-992 limits assumed)": "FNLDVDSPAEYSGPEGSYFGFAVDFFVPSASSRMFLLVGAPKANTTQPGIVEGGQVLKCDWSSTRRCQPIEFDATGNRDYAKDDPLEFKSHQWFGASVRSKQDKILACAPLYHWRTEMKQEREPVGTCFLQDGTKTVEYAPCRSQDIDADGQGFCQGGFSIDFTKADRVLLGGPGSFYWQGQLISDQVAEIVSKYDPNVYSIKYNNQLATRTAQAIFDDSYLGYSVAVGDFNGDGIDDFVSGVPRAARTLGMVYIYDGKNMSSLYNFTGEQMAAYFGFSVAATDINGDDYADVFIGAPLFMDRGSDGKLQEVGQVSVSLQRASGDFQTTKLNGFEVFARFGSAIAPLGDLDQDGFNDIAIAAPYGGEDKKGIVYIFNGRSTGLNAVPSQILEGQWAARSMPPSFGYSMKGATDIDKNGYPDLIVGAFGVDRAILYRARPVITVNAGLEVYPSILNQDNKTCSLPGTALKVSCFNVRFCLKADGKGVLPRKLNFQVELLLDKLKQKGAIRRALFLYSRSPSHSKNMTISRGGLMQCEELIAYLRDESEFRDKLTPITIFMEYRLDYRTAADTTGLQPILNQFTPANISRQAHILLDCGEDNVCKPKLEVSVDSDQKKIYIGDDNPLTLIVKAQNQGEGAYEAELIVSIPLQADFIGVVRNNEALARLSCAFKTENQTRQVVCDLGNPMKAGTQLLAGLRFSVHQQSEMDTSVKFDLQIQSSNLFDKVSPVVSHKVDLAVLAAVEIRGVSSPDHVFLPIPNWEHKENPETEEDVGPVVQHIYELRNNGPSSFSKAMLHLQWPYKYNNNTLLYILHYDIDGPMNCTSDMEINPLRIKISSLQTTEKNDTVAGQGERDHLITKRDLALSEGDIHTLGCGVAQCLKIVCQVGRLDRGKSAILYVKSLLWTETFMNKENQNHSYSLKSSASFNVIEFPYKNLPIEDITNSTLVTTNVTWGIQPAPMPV", "sequence (P05106 27-718 limits assumed)": "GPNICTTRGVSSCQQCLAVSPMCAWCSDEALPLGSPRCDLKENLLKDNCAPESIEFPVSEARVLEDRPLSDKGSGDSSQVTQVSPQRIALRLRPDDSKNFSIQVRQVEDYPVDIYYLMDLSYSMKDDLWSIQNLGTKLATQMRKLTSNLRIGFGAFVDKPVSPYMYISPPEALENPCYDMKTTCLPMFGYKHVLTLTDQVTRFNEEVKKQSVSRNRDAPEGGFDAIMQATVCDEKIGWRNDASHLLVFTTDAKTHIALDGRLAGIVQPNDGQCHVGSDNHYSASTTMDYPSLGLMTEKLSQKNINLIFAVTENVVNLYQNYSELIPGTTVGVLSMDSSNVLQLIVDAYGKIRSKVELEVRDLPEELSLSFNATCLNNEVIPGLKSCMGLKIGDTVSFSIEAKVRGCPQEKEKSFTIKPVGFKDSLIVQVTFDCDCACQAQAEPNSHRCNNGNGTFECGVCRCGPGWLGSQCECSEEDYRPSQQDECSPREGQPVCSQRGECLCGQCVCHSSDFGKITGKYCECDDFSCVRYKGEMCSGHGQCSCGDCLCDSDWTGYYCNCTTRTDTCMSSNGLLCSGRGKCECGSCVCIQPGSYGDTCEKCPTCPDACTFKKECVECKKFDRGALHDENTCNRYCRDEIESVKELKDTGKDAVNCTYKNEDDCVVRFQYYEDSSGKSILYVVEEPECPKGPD", "assay": "Surface plasmon resonance assay (SPR), ITGαvβ3", "type": "binding", "conditions": "SPR", "protocol": "(§1) Assessment of the binding affinity was performed on a BiaCore X100 (GE Healthcare). To avoid denaturation of the heterodimer during amide activation ITGαvβ6 and ITGαvβ3, respectively, were used as analytes and SFITGv6 was immobilized at its N-terminus on a C1 sensor Chip (BR-1005-35, GE Healthcare) using a manual amine coupling protocol. Briefly, after activation of the sensor chip surface with a solution of EDC 0.4 M/NHS 0.1 M for 5 min a 100 μM peptide dissolved in HBS-EP running buffer (0.1 M HEPES, 30 mM EDTA, 1.5 M NaCl, 0.5% surfactant P20, pH 7.2) was immobilized with a contact time of 30 sec until a loading level of 18 response units (RU) was obtained. […] The SPR-sensogram data were evaluated with the BiaCore evaluation software. The dissociation constant (KD) was determined by a 1:1 Langmuir model fit of the SPR-sensograms.\nas §1, with “SFLAP3” for “peptide”, “to obtain” for “until”, “12” for “18”, “(RU).” for “(RU) was obtained.”, “SPR sensogram” for “SPR-sensogram”, “SPR sensograms.” for “SPR-sensograms.”"}, "[1]": {"assay": "Serum stability assay (radio-HPLC)", "type": "in vitro ADME, human", "conditions": "radio-HPLC, 37° C., up to 24 hours", "protocol": "Five MBq of the purified ^131I-radiolabeled peptide was incubated in 300 μL human serum at 37° C. After different time intervals (15 min to 24 hours) 20 μL serum was precipitated with 40 μL acetonitrile. The stability of the labeled peptide in the supernatant was monitored by radio-HPLC at selected time points using a chromolith performance RP18ec column (3 mm×100 mm) equipped with a gamma detector (Packard COBRA™ Auto-Gamma, GMI). Separation condition was a gradient of 0% to 60% aqueous acetonitrile supplemented with 0.1% TFA over 10 min with a flow rate of 2 mL/min."}, "HNO399 xenografts": {"test_system": "HNO399 xenografts", "assay": "Biodistribution, HNO399 xenografts", "type": "in vivo, mice"}, "HNO223 xenografts": {"test_system": "HNO223 xenografts", "assay": "Biodistribution, HNO223 xenografts", "type": "in vivo, mice"}, "[2]": {"test_system": "HNSCC tumor sections (HNO97 xenograft, HNO444, HNO399, HNO210)", "assay": "Histochemical peptide staining of HNSCC tumor cryosections", "parameters": "species or system human", "conditions": "biotinylated PEG(12)-peptide, 10^-5 M", "protocol": "Staining with the biotinylated PEG(12)-SFITGv6 peptide was performed on acetone-fixed cryosections (5 μm) of tumor tissues after blocking of unspecific binding using the Avidin/Biotin Blocking Kit (SP-2001, Vector Laboratories). A stock solution of the lyophilized peptide was prepared by dilution in 5% aqueous DMSO. Slices were incubated overnight at 4° C. with 10^-5 M peptide concentration in antibody diluent (DAKO). Detection of bound peptide was carried out with the Vectastain Elite ABC Kit (PK-6100, Vector Laboratories) according to manufacturer's protocol. Peptide specificity was ensured by a scrambled (GRD) PEG(12)-SFITGv6 derivate, the somatostatin receptor ligand DOTATOC and negative controls (without peptide or primary antibody) Staining results were assessed by bright field microscopy (BX50) with the SC30 camera and the cell Sense software (all Olympus).\nImmunohistochemical stainings were performed by use of the biotinylated PEG(12)-labled peptides (SFITGv6, SFLAP3) on 5 μm acetone-fixed tumor tissue cryosections. To prevent background staining we initially applied the Avidin/Biotin Blocking Kit (SP-2001, Vector Laboratories). The lyophilized peptides were diluted in 5% aqueous DMSO preparing a 1 mM Stock solution. The HNSCC cryosections were incubated with 10^−5 M peptide concentration in antibody diluent (DAKO) at 4° C. overnight. To detect bound peptide the Vectastain Elite ABC Kit (PK-6100, Vector Laboratories) was applied according to manufacturer's protocol. Peptide binding specificity was ensured by use of a peptide derivate (scrambled control) and negative controls (without peptide). Due to instability of the peptide binding staining results were assessed on the same day by bright field microscopy (BX50) with the SC30 camera and the cell Sense software (all Olympus)."}, "[3]": {"target": "integrin αvβ6 (ITGαvβ6) as expressed on human carcinoma cell lines and tumor tissue sections (human) (UniProt P06756)", "sequence (P06756 31-1048, chain 1 of 2)": "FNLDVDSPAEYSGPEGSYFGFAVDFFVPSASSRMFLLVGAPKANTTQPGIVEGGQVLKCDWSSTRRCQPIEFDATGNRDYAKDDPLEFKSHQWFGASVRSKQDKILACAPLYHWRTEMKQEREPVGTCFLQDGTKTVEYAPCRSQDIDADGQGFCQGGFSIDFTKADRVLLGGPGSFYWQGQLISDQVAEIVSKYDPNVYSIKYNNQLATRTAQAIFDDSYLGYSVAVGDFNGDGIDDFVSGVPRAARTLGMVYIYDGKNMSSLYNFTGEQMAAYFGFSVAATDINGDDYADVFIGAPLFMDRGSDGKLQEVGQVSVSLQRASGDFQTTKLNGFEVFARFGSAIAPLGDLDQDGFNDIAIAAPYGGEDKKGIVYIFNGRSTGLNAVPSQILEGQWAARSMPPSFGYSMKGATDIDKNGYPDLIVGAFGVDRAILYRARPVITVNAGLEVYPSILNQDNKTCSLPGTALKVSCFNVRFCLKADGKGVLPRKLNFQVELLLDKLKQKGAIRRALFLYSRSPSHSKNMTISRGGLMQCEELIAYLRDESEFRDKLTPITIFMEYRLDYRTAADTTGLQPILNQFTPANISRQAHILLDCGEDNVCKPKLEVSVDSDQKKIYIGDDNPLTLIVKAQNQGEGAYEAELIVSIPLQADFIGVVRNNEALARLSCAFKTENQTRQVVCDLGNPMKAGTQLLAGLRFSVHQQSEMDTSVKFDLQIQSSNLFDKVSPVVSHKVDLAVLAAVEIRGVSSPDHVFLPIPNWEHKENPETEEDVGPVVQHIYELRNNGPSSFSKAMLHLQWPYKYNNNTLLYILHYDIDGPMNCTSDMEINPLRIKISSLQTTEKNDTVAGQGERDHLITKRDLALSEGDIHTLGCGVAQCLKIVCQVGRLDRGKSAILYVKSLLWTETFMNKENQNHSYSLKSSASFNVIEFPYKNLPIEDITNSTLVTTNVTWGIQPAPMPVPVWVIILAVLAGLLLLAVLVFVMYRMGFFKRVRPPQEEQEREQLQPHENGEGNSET", "sequence (P18564 22-788, chain 2 of 2, further chain)": "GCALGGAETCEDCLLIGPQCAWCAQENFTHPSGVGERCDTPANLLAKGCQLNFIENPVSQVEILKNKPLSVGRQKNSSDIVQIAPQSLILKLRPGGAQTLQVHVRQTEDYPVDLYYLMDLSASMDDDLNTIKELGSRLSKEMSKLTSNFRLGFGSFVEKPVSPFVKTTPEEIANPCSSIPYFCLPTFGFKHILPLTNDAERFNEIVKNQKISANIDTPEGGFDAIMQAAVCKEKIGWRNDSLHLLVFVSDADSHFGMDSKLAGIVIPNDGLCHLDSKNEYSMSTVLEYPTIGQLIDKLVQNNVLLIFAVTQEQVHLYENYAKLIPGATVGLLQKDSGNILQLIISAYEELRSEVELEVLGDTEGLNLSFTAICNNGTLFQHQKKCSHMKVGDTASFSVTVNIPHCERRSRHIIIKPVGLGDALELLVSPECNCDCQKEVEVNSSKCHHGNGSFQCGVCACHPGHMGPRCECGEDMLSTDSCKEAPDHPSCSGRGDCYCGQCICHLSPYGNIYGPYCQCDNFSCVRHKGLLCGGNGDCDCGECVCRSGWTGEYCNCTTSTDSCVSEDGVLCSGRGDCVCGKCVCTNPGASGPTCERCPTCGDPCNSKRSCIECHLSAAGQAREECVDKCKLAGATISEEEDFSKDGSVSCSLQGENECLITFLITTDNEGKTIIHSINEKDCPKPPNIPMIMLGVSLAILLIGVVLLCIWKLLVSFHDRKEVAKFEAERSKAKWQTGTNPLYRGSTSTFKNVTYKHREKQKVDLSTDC", "assay": "peptide competing with 125I-SFITGv6 on HNO97 cells, 60 min"}, "[4]": {"target": "T1, integrin αvβ6 (ITGαvβ6) as expressed on human carcinoma cell lines and tumor tissue sections (human, UniProt P06756 31-1048; P18564 22-788)", "T1 construct": "whole, on cells; also called ITGAVB6; ITGαvβ6-expressing HNO97 cells", "T1 sequence (P06756 31-1048, chain 1 of 2)": "as the sequence (P06756 31-1048, chain 1 of 2) above", "T1 sequence (P18564 22-788, chain 2 of 2)": "as the sequence (P18564 22-788, chain 2 of 2, further chain) above", "assay": "125I-peptide binding to HNO97 cells, 60 min"}, "[5]": {"target": "T1, integrin αvβ6 (ITGαvβ6) as expressed on …", "assay": "125I-peptide binding to HNO199 cells, 60 min"}, "[6]": {"target": "T1, integrin αvβ6 (ITGαvβ6) as expressed on …", "assay": "125I-peptide binding to HNO210 cells, 60 min"}, "[7]": {"target": "T1, integrin αvβ6 (ITGαvβ6) as expressed on …", "assay": "125I-peptide binding to HNO223 cells, 60 min"}, "[8]": {"target": "T2, ITGαvβ3 heterodimer (analyte in SPR) (UniProt P06756 31-992; P05106 27-718, limits assumed)", "T2 construct": "Soluble heterodimer used as analyte over immobilised peptide; construct not described", "T2 sequence (P06756 31-992 limits assumed, chain 1 of 2)": "as the sequence (P06756 31-992 limits assumed) above", "T2 sequence (P05106 27-718 limits assumed, chain 2 of 2)": "as the sequence (P05106 27-718 limits assumed) above", "assay": "SPR, αvβ3 heterodimer against ITGαvβ6 on immobilised SFLAP3"}, "[9]": {"target": "T1, integrin αvβ6 (ITGαvβ6) as expressed on …", "assay": "competition of unlabeled SFLAP3 with 125I-SFLAP3 on HNO97 cells"}, "[10]": {"target": "T1, integrin αvβ6 (ITGαvβ6) as expressed on …", "assay": "competition of unlabeled SFLAP3 with 125I-SFLAP3 on HNO223 cells"}, "[11]": {"target": "T1, integrin αvβ6 (ITGαvβ6) as expressed on …", "assay": "competition of unlabeled SFLAP3 with 125I-SFLAP3 on HNO399 cells"}, "[12]": {"target": "T2, ITGαvβ3 heterodimer (analyte in SPR)", "assay": "SPR (BiaCore X100), peptide immobilised on C1 chip, ITGαvβ3 as analyte, 1:1 Langmuir fit; SPR, αvβ3 as analyte"}, "[13]": {"target": "T3, ITGαvβ6 heterodimer (analyte in SPR) (UniProt P06756 31-992; P18564 22-707, limits assumed)", "T3 construct": "Soluble heterodimer used as analyte over immobilised peptide; construct not described; also called heterodimeric receptor ITGαvβ6", "T3 sequence (P06756 31-992 limits assumed, chain 1 of 2)": "as the sequence (P06756 31-992 limits assumed) above", "T3 sequence (P18564 22-707 limits assumed, chain 2 of 2)": "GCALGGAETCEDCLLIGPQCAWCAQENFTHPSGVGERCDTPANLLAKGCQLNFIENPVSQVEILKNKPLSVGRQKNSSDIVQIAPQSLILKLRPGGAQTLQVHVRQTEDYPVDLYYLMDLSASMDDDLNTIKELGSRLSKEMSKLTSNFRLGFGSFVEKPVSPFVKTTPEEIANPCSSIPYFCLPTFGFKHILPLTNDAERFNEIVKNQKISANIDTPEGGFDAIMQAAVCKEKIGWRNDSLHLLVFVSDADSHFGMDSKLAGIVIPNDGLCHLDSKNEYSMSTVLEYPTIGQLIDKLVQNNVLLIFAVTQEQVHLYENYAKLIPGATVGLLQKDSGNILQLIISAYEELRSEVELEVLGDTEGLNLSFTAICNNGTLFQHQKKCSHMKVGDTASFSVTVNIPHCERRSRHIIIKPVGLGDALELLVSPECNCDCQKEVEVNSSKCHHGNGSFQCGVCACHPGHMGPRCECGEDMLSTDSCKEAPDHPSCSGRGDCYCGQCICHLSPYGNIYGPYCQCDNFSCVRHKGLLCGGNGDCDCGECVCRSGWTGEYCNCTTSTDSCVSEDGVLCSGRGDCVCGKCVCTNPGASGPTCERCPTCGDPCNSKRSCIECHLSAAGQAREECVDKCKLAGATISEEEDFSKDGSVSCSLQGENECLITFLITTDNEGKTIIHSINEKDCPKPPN", "assay": "SPR (BiaCore X100), peptide immobilised on C1 chip, ITGαvβ6 as analyte, 1:1 Langmuir fit; SPR, ITGαvβ6 as analyte"}, "[14]": {"target": "T1, integrin αvβ6 (ITGαvβ6) as expressed on …", "assay": "unlabeled peptide competing with 125I-SFLAP3 on HNSCC cell lines (HNO97, HNO399, HNO223), mean; mean over HNSCC cell lines"}, "[15]": {"target": "T2, ITGαvβ3 heterodimer (analyte in SPR)", "assay": "SPR, ITGαvβ3 against ITGαvβ6 on immobilised SFITGv6"}, "[16]": {"target": "T1, integrin αvβ6 (ITGαvβ6) as expressed on …", "assay": "unlabeled peptide competing with 125I-SFITGv6 on HNO97 cells, 60 min; HNO97 cells, cell competition IC50"}, "[17]": {"target": "T2, ITGαvβ3 heterodimer (analyte in SPR)", "assay": "SPR (BiaCore X100), peptide immobilised on C1 chip, ITGαvβ3 as analyte, 1:1 Langmuir fit; SPR, ITGαvβ3 as analyte"}, "[18]": {"target": "T1, integrin αvβ6 (ITGαvβ6) as expressed on …", "assay": "unlabeled peptide competing with 125I-SFITGv6 on HNSCC cell lines (HNO97, HNO399, HNO223), mean; mean over HNSCC cell lines"}, "[19]": {"target": "T1, integrin αvβ6 (ITGαvβ6) as expressed on …", "assay": "unlabeled peptide (10^-10 to 10^-4 M) competing with the 125I-labeled peptide on HNO97 cells"}}, "note": "“Also recorded” adds a separate entry of the source. Where a SMILES comes first, the peptide text is derived from it. Bridges are numbered along the chain shown (N, C = ends). Where no end group is shown, it is not given here.", "data": [{"molecule": "CC(C)C[C@@H]1NC(=O)[C@H](CC(=O)O)NC(=O)CNC(=O)[C@H](CCCNC(=N)N)NC(=O)CNC(=O)[C@H]([C@@H](C)O)NC(=O)[C@@H](NC(=O)[C@H](CCCNC(=N)N)NC(=O)CN)CSSC[C@@H](C(=O)N[C@@H](Cc2ccc(O)cc2)C(=O)N2CCC[C@H]2C(=O)N[C@@H](CC(=O)O)C(=O)O)NC(=O)[C@H](CC(C)C)NC(=O)[C@H](CCCNC(=N)N)NC(=O)CNC1=O", "note": "[SFLAP3, H2N-G-R-C1-T-G-R-G-D-L-G-R-L-C2-Y-P-D-COOH] (H-GRCTGRGDLGRLCYPD-OH; disulfide 3-13)", "values": [{"measurement": "lower affinity for ITGαvβ3 than for ITGαvβ6", "setting": "ITGαvβ3", "value": 10, "unit": "fold"}, {"measurement": "proteolytic stability in human serum", "setting": "[1]", "value": "no degradation over a 24 hours; also recorded: shown for up to 24 hours"}, {"measurement": "maximum accumulation in the tumor lesion", "setting": "HNO399 xenografts; 60 min post injection", "value": 3.6, "unit": "% ID/g"}, {"measurement": "accumulation in the tumor after decrease", "setting": "HNO399 xenografts; 360 min after injection", "value": "~2", "unit": "%"}, {"measurement": "maximum accumulation in the tumor lesion", "setting": "HNO223 xenografts; 60 min post injection, HNO233-xenografted as printed", "value": 3.4, "unit": "% ID/g"}, {"measurement": "accumulation in the tumor after decrease", "setting": "HNO223 xenografts; 360 min after injection", "value": "~2", "unit": "%"}, {"measurement": "histochemical peptide staining result", "setting": "[2]", "value": "slightly fainter staining capacity"}]}, {"molecule": "A20FMDV2 (peptide)", "values": [{"measurement": "IC50", "setting": "[3]", "value": 3.2, "unit": "nM"}]}, {"molecule": "GRCTGRGDLGRLCYPD (disulfide 3-13 (inferred); not fully specified (C-terminus); also: 125I on the tyrosine in labelled tracer form)", "note": "[SFLAP3]", "values": [{"measurement": "percent of applied dose bound per 10^6 cells", "setting": "[4]", "value": 24.7, "unit": "%"}, {"measurement": "percent of applied dose bound per 10^6 cells", "setting": "[5]", "value": 19.7, "unit": "%"}, {"measurement": "percent of applied dose bound per 10^6 cells", "setting": "[6]", "value": 10.6, "unit": "%"}, {"measurement": "percent of applied dose bound per 10^6 cells", "setting": "[7]", "value": 17.6, "unit": "%"}, {"measurement": "fold lower affinity than for ITGαvβ6", "setting": "[8]", "value": 10, "unit": "fold"}, {"measurement": "IC50", "setting": "[9]", "value": 4.7, "unit": "nM"}, {"measurement": "IC50", "setting": "[10]", "value": 2.56, "unit": "nM"}, {"measurement": "IC50", "setting": "[11]", "value": 3.25, "unit": "nM"}, {"measurement": "Kd", "setting": "[12]", "value": 185, "unit": "nM"}, {"measurement": "Kd", "setting": "[13]", "value": 7.4, "unit": "nM"}, {"measurement": "IC50", "setting": "[14]", "value": 3.5, "unit": "nM"}]}, {"molecule": "GRCTFRGDLMQLCYPD (disulfide 3-13 (inferred); not fully specified (C-terminus); also: 125I on the tyrosine in labelled tracer form, Synthetic SFTI-1 derivate)", "note": "[SFITGv6]", "values": [{"measurement": "percent of applied dose bound per 10^6 cells", "setting": "[7]", "value": 13.5, "unit": "%"}, {"measurement": "fold lower affinity than for ITGαvβ6", "setting": "[15]", "value": 10, "unit": "fold"}, {"measurement": "IC50", "setting": "[16]", "value": 16.1, "unit": "nM"}, {"measurement": "Kd", "setting": "[17]", "value": 185, "unit": "nM"}, {"measurement": "IC50", "setting": "[18]", "value": 14.1, "unit": "nM"}]}, {"molecule": "GRCTFRGDKMQLCYPD (disulfide 3-13 (inferred); also: 125I on the tyrosine in labelled tracer form, Originally selected peptide of the SFTI8Ph library)", "note": "[SFPF-10]", "values": [{"measurement": "percent of applied dose bound per 10^6 cells", "setting": "[4]", "value": 7.2, "unit": "%"}, {"measurement": "percent of applied dose bound per 10^6 cells", "setting": "[5]", "value": 3.1, "unit": "%"}, {"measurement": "percent of applied dose bound per 10^6 cells", "setting": "[6]", "value": 5, "unit": "%"}, {"measurement": "percent of applied dose bound per 10^6 cells", "setting": "[7]", "value": 11, "unit": "%"}, {"measurement": "IC50", "setting": "[19]", "value": 18, "unit": "nM"}]}]}
